Results as given in patent US20220241413A1, “COMBINATION THERAPIES USING CD-38 ANTIBODIES” (Takeda Pharmaceutical Company Limited, priority 2019, published 2022).

Experiments:
[1] = test system: relapsed and refractory multiple myeloma (RRMM); assay: AB79-1501 study, AB79 monotherapy SC in RRMM: disease response; assay type: in vivo, human; settings: at the RP2D, anti-CD38 naïve patients who received at least cycle 1
Text: The AB79-1501 study is a Phase 1b/2a multicenter, open-label, dose-escalation, single-arm study in patients with relapsed and refractory multiple myeloma (RRMM), who were previously treated with at least a proteasome inhibitor (PI), an immunomodulatory drug (IMiD), an alkylating agent, and a steroid. Patients eligible for study enrollment are refractory or intolerant to at least one PI and at least one IMiD, and have received either ≥3 prior therapies or ≥2 prior therapies, if one of those therapies included a combination of a PI and an IMiD. In the phase 1b dose-escalation part of the study, patients who were previously exposed to an anti-CD38 agent are eligible; however, this criterion is not required. In the phase 2a expansion part of the study, patients were also refractory to at least one anti-CD38 monoclonal therapy at any time during prior treatment. The study was designed to evaluate the safety and tolerability of subcutaneously administered AB79 monotherapy in patients with RRMM, to determine the recommended phase 2 dose (RP2D), and to provide a preliminary assessment of its single-agent activity against RRMM, including in patients who are refractory to daratumumab. Parameters such as safety, tolerability, pharmacokinetics (PK), pharmacodynamics, and disease response were assessed.
As of the data cutoff, nineteen (19) patients were treated in the dose-escalation portion of the ongoing study in patients with RRMM and have completed at least 1 cycle: 4 patients in the first cohort (45 mg); 3 patients in the second cohort (135 mg); 6 patients in the third cohort (300 mg); and 6 patients in the fourth cohort (600 mg). The most common TEAEs (in ≥10% of patients) regardless of causality in the total population as of this date are fatigue and upper respiratory infection (27% each), insomnia (22%), diarrhea and nausea (17% each), headache and anemia (15% each), neutropenia, abdominal distension, back pain, and hypertension (12% each), cough and pneumonia (10% each). […] The RP2D was determined to be 600 mg with AB79 monotherapy. […]

[2] = test system: peripheral blood NK cells; assay: Phase 1 study in healthy subjects (AB79-101): NK cell levels; assay type: in vivo, human; settings: all subjects receiving a single 0.06 mg/kg IV dose
Experimental: In a phase 1 study in healthy subjects (Study AB79-101), AB79 reduced the levels of peripheral blood and natural killer (NK) cells >90% from baseline in all subjects receiving a single 0.06 mg/kg IV dose of AB79, with a maximum observed concentration (Cmax) of 0.1 μg/mL. (U.S. Pat. No. 8,362,211; U.S. International Patent Application Serial Nos. PCT/US2019/013547 and PCT/US2019/024431). […] Potent reduction of plasmablasts was observed across cohorts of patients in the RRMM trial (Study AB79-1501). […] Consequently, AB79 may be more efficient at eliminating cells expressing high levels of CD38, which could manifest as higher activity on tumor cells (e.g., improved and deeper response rates across a population of patients with myeloma).
AB79 IV reduced the levels of peripheral blood NK cells >90% from baseline levels in all subjects receiving a single 0.06 mg/kg IV dose, with a Cmax of 0.1 μg/mL. […] As a potent and convenient second-generation anti-CD38 mAb, AB79 SC warranted therapeutic development for the treatment of multiple myeloma (MM).

[3] = AB79-1501 study, AB79 plus PomDex combination cohort in RRMM: safety; assay type: in vivo
Text: This is a multicenter, dose-escalation, open-label, single-arm, Phase 1/2a study designed to determine the safety, tolerability, efficacy, PK, and immunogenicity of AB79 monotherapy in patients with RRMM, and to provide a preliminary assessment of its activity against MM.
The phase 1 portion of the study evaluates administration of single agent AB79 for dose-limiting toxicity (DLT) to determine the MTD or the RP2D for further assessment in phase 2a. A recommended dose below the MTD is identified based on the review of safety, PK, PD (e.g., CD38 occupancy), and clinical data from the phase 1 portion of the study. The safety and tolerability of AB79 is assessed by recording and analyzing TEAEs, dose modifications, treatment discontinuations, vital signs, physical examinations, serum chemistry and hematology, urinalysis, ECGs, and concomitant medications. In phase 1, approximately 6 doses of AB79 are evaluated in ascending cohorts of 3 to 6 patients per cohort. Cohorts may be expanded by enrolling additional patients to further inform selection of the RP2D before enrolling in the Phase 2a portion of the study. In the phase 2a portion of this study, Grade 4 or higher nonhematologic toxicity is monitored starting from the first 10 enrolled patients and then every 10 patients thereafter. Additionally, a cohort of patients receive AB79 combined with the backbone regimen of pomalidomide and dexamethasone (PomDex) in patients with RRMM who have received at least 2 prior therapies and are refractory to the last therapy before study entry.
The study provides a Confirmation Cohort and a Combination Cohort. Each Cohort is administered a dose of 300 mg AB79 subcutaneously weekly for 8 weeks during Cycles 1 and 2 (8 doses), every other week during Cycles 3 to 6 for 16 weeks (8 doses), and then once every 4 weeks until PD in subsequent cycles. Safety and available efficacy, PK, and pharmacodynamics are reviewed at least after 6 patients in each subgroup have received 1 cycle of therapy, then on an ongoing basis. […] The Combination Cohort also receives pomalidomide and dexamethasone (PomDex), and given according to product labeling (Pomalyst USPI). […] In the Combination Cohort, up to 6 patients are initially enrolled and safety in Cycle 1 reviewed. […] If 2 of 6 patients develop DLTs, an additional cohort of 6 patients is tested at a de-escalated dose; an intermediate or more conservative dose schedule may also be implemented as a means to provide an overall lower dose. A lower dose of pomalidomide is also considered based on available safety data. […] If 2 of 6 patients develop DLTs at the lower dose, this cohort is stopped for further evaluation.

[4] = AB79-2001 phase 1b study in SLE: safety; assay type: in vivo, human; settings: 15 patients, data still blinded (AB79 or placebo)
Text: AB79-2001 is a double-blind, placebo-controlled phase 1b study in patients with moderate to severe SLE. As of the clinical data cutoff, a total of 15 patients had received at least 1 dose of AB79 or placebo. Data is still blinded for this study. No new safety concerns have been identified.

[5] = AB79 plus PomDex, RRMM, 5 patients treated

AB79: anti-CD38 monoclonal IgG1 antibody; heavy chain SEQ ID NO:11, light chain SEQ ID NO:12
clinical benefit rate (minor response or better) [1]: 73%
disease control rate (stable disease or better) [1]: 91%
preliminary objective response rate (ORR) [1]: 36%
reduction of levels of peripheral blood NK cells from baseline [2]: > 90%
number of DLTs (neutropenia) ([3]; AB79 plus PomDex cohort): 1 DLT
drug-related SAEs or AEs leading to study drug discontinuation, or on-study deaths ([3]; AB79 plus PomDex combination): No
systemic reactions ([3]; AB79 plus PomDex combination): no systemic reactions
TEAE regardless of causality: cough [3, 5]: 2 patients
TEAE regardless of causality: neutropenia [3, 5]: 2 patients
patients with a Grade 3 or higher TEAE or AEs leading to study drug discontinuation [4]: No patient
